Reference: US20190031713A1 (Regeneron, published 2019)

Target: T1, Protein A (on chromatography support) (UniProt P38507 37-327)
T1 construct: Commercial recombinant Protein A resins; also called rProtein A FF; NAb Protein A Plus
Test: rProtein A FF column, pH gradient, 20 mM sodium citrate, 1 M NaCl
Protocol: The solvent system consisted of solvent A (PBS, 1×), solvent B (20 mM sodium citrate and 1 M NaCl, pH 5.5) and solvent C (20 mM sodium citrate and 1M NaCl, pH 2.5). The elution started with an isocratic elution with 100% A in the first 20 min followed by a quick switch to 100% B at 20 min. […] A linear gradient from 33.5% C to 100% C was followed for 30 min. The flow rate was kept 250 microliters/min and the chromatograms were detected at 280 nm by a UV detector.

Binder	elution pH from Protein A column [pH]
differentially modified heterodimeric human IgG2 Fc/ΔAdpFc (other) chain 1: ERKCCVECPPCPAPPVAGPSVFLFPPKPKDTLMISRTPEVTCVVVDVSHEDPEVQFNWYVDGVEVHNAKTKPREEQFNSTFRVVSVLTVVHQDWLNGKEYKCKVSNKGLPAPIEKTISKTKGQPREPQVYTLPPSREEMTKNQVSLTCLVKGFYPSDIAVEWESNGQPENNYKTTPPMLDSDGSFFLYSKLTVDKSRWQQGNVFSCSVMHEALHNHYTQKSLSLSPGK chain 2: ERKCCVECPPCPAPPVAGPSVFLFPPKPKDTLMISRTPEVTCVVVDVSHEDPEVQFNWYVDGVEVHNAKTKPREEQFNSTFRVVSVLTVVHQDWLNGKEYKCKVSNKGLPAPIEKTISKTKGQPREPQVYTLPPSREEMTKNQVSLTCLVKGFYPSDIAVEWESNGQPENNYKTTPPMLDSDGSFFLYSKLTVDKSRWQQGNVFSCSVMHEALHNRFTQKSLSLSPGK	4.5
unmodified human homodimeric IgG2 Fc/Fc (other, UniProt P01859-1 99-326, looked up, domain: Fc; also called hIgG2 Fc/Fc; hIgG2) ERKCCVECPPCPAPPVAGPSVFLFPPKPKDTLMISRTPEVTCVVVDVSHEDPEVQFNWYVDGVEVHNAKTKPREEQFNSTFRVVSVLTVVHQDWLNGKEYKCKVSNKGLPAPIEKTISKTKGQPREPQVYTLPPSREEMTKNQVSLTCLVKGFYPSDISVEWESNGQPENNYKTTPPMLDSDGSFFLYSKLTVDKSRWQQGNVFSCSVMHEALHNHYTQKSLSLSPGK	3.5
